Assay results taken from US20070004636.

Key:
[1] = system: T1, human hepatocyte nuclear factor 4α (HNF-4α), His and Xpress-tagged at the N-terminus
T1 sequence: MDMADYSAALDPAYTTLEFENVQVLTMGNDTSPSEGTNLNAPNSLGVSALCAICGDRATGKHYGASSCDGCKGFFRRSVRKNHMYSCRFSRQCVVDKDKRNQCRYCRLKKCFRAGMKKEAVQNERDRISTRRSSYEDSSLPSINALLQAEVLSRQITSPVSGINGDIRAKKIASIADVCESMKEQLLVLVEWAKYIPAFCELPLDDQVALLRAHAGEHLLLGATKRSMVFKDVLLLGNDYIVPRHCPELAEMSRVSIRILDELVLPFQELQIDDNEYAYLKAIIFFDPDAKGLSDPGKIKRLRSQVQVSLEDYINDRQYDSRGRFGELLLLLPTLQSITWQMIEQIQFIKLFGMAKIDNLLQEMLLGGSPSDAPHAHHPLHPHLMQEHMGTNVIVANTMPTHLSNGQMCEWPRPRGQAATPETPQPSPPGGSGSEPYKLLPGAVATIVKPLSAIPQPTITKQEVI

[2] = system: human hepatocyte nuclear factor 1α (HNF-1α), His and Xpress-tagged at the N-terminus
Chain of human hepatocyte nuclear factor 1α (HNF-1α), His and Xpress-tagged at the N-terminus (chain, as listed by the source): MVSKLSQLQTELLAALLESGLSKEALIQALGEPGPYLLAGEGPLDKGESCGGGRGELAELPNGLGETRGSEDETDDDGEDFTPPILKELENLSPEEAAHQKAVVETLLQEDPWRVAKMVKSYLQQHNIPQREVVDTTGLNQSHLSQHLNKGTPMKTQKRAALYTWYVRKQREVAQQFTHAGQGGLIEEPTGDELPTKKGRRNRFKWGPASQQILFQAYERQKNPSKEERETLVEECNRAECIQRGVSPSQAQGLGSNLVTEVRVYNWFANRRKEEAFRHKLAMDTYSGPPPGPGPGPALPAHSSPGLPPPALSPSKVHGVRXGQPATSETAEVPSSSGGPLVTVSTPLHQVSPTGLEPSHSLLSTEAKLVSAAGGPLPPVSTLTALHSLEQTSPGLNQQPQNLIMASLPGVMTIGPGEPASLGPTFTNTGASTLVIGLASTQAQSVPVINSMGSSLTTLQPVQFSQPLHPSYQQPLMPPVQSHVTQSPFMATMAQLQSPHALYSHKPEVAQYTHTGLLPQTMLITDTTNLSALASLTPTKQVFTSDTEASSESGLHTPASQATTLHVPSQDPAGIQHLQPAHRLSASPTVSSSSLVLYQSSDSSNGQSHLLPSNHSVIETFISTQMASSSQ

[3] = system: human insulin promoter factor 1 (IPF-1), His and Xpress-tagged at the N-terminus
Chain of human insulin promoter factor 1 (IPF-1), His and Xpress-tagged at the N-terminus (chain, as listed by the source): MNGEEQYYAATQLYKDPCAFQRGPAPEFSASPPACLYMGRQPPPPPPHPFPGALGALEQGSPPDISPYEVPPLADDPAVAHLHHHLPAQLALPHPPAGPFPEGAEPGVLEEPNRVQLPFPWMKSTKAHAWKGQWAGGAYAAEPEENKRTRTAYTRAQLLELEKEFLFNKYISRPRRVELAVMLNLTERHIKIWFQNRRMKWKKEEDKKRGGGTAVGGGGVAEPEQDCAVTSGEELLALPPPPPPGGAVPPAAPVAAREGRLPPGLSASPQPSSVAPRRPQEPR

rabbit m-calpain, extracted from rabbit muscle (Protease, Calcium-Activated Neutral (calpain), Sigma Chemical Co.)
in vitro protein degradation test, Western blotting with anti-HNF-4α and anti-Xpress antibody [1]: the degradation of HNF-4α by rabbit m-calpain was observed | in vitro protein degradation test, Western blotting with anti-Omni/M21 and anti-HNF-1α antibody [2]: the in vitro degradation of HNF-1α by each of human µ-calpain, rabbit m-calpain and rat m-calpain was observed | in vitro protein degradation test, Western blotting with anti-Xpress and anti-IPF-1 antibody [3]: the in vitro degradation of IPF-1 by each of human µ-calpain, rabbit m-calpain and rat m-calpain was observed

human m-calpain coexpressed with calpain small subunit 1 in sf-9 insect cells (cell lysate)
in vitro protein degradation test, Western blotting with anti-HNF-4α antibody [1]: the degradation of human HNF-4α by human m-calpain was observed | in vitro protein degradation test, Western blotting with anti-HNF-1α antibody [2]: the degradation of human HNF-1α by human m-calpain was observed | in vitro protein degradation test, Western blotting with anti-IPF-1 antibody [3]: the degradation of human IPF-1 by human m-calpain was observed
